Measured values reported in doi:10.1101/481457 (bioRxiv, 2019).

Target: T1, CBP Full-HAT domain (central core catalytic region), 6His-tagged (mouse, UniProt P45481 1096-1700)
T1 sequence (looked up): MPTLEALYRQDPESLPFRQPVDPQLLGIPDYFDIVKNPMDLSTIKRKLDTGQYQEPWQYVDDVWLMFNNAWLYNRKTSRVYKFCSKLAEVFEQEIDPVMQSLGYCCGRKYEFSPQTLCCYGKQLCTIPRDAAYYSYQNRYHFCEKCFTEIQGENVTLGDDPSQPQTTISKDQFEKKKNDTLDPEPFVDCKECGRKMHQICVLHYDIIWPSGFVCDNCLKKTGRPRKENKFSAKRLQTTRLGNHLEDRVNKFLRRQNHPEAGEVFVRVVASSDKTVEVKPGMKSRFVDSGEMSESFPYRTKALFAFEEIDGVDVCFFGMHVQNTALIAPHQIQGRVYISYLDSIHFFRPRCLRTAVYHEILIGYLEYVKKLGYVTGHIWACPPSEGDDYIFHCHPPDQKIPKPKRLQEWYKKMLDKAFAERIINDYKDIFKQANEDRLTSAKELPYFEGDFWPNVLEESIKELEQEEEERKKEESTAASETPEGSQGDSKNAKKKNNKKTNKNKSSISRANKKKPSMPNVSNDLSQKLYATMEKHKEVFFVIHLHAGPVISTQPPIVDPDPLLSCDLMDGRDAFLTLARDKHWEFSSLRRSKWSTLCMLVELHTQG
Assay: BLI

B1: biotinylated recombinant full-length HSF2 (natural protein, UniProt Q03933 1-536, looked up)
chain: MKQSSNVPAFLSKLWTLVEETHTNEFITWSQNGQSFLVLDEQRFAKEILPKYFKHNNMASFVRQLNMYGFRKVVHIDSGIVKQERDGPVEFQHPYFKQGQDDLLENIKRKVSSSKPEENKIRQEDLTKIISSAQKVQIKQETIESRLSELKSENESLWKEVSELRAKHAQQQQVIRKIVQFIVTLVQNNQLVSLKRKRPLLLNTNGAQKKNLFQHIVKEPTDNHHHKVPHSRTEGLKPRERISDDIIIYDVTDDNADEENIPVIPETNEDVISDPSNCSQYPDIVIVEDDNEDEYAPVIQSGEQNEPARESLSSGSDGSSPLMSSAVQLNGSSSLTSEDPVTMMDSILNDNINLLGKVELLDYLDSIDCSLEDFQAMLSGRQFSIDPDLLVDLFTSSVQMNPTDYINNTKSENKGLETTKNNVVQPVSEEGRKSKSKPDKQLIQYTAFPLLAFLDGNPASSVEQASTTASSEVLSSVDKPIEVDELLDSSLDPEPTQSKLVRLEPLTEAEASEATLFYLCELAPAPLDSDMPLLDS
modifications: biotinylated with EZ-Link NHS-PEG4-Biotin at a molar ratio biotin/protein 3:1
B1 was tested, and the Kd was 1 nM.
